Measurements: patent publication US20260265379A1

B1: bsAb018 (bispecific antibody)
heavy: EIVLTQSPATLSLSPGERATLSCRASKGVSTSGYSYLHWYQQKPGQAPRLLIYLASYLESGVPARFSGSGSGTDFTLTISSLEPEDFAVYYCQHSRDLPLTFGGGTKVEIKGGGGSGGGGSGGGGSGGGGSQVQLVQSGVEVKKPGASVKVSCKASGYTFTNYYMYWVRQAPGQGLEWMGGINPSNGGTNFNEKFKNRVTLTTDSSTTTAYMELKSLQFDDTAVYYCARRDYRFDMGFDYWGQGTTVTVSSGGGGSGGGGSGGGGSGGGGSQVQLVQSGAEVKKPGASVKLSCKASGYIFTRYYMYWVKQRPGQGLEWIGEINPNNGGTKFNEKFKNRATLTVDKSISTAYMELSRLRSDDTAVYYCSREDDYDGTPFAMDYWGQGTLVTVSSASTKGPSVFPLAPSSKSTSGGTAALGCLVKDYFPEPVTVSWNSGALTSGVHTFPAVLQSSGLYSLSSVVTVPSSSLGTQTYICNVNHKPSNTKVDKRVEPKSCDKTHTCPPCPAPEFEGGPSVFLFPPKPKDTLMISRTPEVTCVVVDVSHEDPEVKFNWYVDGVEVHNAKTKPREEQYNSTYRVVSVLTVLHQDWLNGKEYKCKVSNKALPASIEKTISKAKGQPREPQVYTLPPSREEMTKNQVSLTCLVKGFYPSDIAVEWESNGQPENNYKTTPPVLDSDGSFFLYSKLTVDKSRWQQGNVFSCSVMHEALHNHYTQKSLSLSPG
light: not shown
B2: bsAb010 (bispecific antibody)
heavy: QVQLVQSGAEVKKPGASVKLSCKASGYIFTRYYMYWVKQRPGQGLEWIGEINPNNGGTKFNEKFKNRATLTVDKSISTAYMELSRLRSDDTAVYYCSREDDYDGTPFAMDYWGQGTLVTVSSASTKGPSVFPLAPSSKSTSGGTAALGCLVKDYFPEPVTVSWNSGALTSGVHTFPAVLQSSGLYSLSSVVTVPSSSLGTQTYICNVNHKPSNTKVDKRVEPKSCDKTHTCPPCPAPEFEGGPSVFLFPPKPKDTLMISRTPEVTCVVVDVSHEDPEVKFNWYVDGVEVHNAKTKPREEQYNSTYRVVSVLTVLHQDWLNGKEYKCKVSNKALPASIEKTISKAKGQPREPQVYTLPPSREEMTKNQVSLTCLVKGFYPSDIAVEWESNGQPENNYKTTPPVLDSDGSFFLYSKLTVDKSRWQQGNVFSCSVMHEALHNHYTQKSLSLSPG
light: not shown
B3: bsAb014 (bispecific antibody)
heavy: B2 heavy
light: not shown
B4: bsAb022 (bispecific antibody)
heavy: QVQLVQSGVEVKKPGASVKVSCKASGYTFTNYYMYWVRQAPGQGLEWMGGINPSNGGTNFNEKFKNRVTLTTDSSTTTAYMELKSLQFDDTAVYYCARRDYRFDMGFDYWGQGTTVTVSSGGGGSGGGGSGGGGSGGGGSEIVLTQSPATLSLSPGERATLSCRASKGVSTSGYSYLHWYQQKPGQAPRLLIYLASYLESGVPARFSGSGSGTDFTLTISSLEPEDFAVYYCQHSRDLPLTFGGGTKVEIKGGGGSGGGGSGGGGSGGGGSQVQLVQSGAEVKKPGASVKLSCKASGYIFTRYYMYWVKQRPGQGLEWIGEINPNNGGTKFNEKFKNRATLTVDKSISTAYMELSRLRSDDTAVYYCSREDDYDGTPFAMDYWGQGTLVTVSSASTKGPSVFPLAPSSKSTSGGTAALGCLVKDYFPEPVTVSWNSGALTSGVHTFPAVLQSSGLYSLSSVVTVPSSSLGTQTYICNVNHKPSNTKVDKRVEPKSCDKTHTCPPCPAPEFEGGPSVFLFPPKPKDTLMISRTPEVTCVVVDVSHEDPEVKFNWYVDGVEVHNAKTKPREEQYNSTYRVVSVLTVLHQDWLNGKEYKCKVSNKALPASIEKTISKAKGQPREPQVYTLPPSREEMTKNQVSLTCLVKGFYPSDIAVEWESNGQPENNYKTTPPVLDSDGSFFLYSKLTVDKSRWQQGNVFSCSVMHEALHNHYTQKSLSLSPG
light: not shown
B5: bsAb070 (bispecific antibody, not shown: small tags and cut ends; a dimerising Fc or GST)
heavy 1: EVQLVESGGGLVQPGGSLRLSCAASGFTFSRYWMSWVRQAPGKGLEWVANIKQDGSEKYYVDSVKGRFTISRDNAKNSLYLQMNSLRAEDTAVYYCAREGGWFGELAFDYWGQGTLVTVSS
heavy 2: QVQLVQSGAEVKKPGASVKLSCKASGYIFTRYYMYWVKQRPGQGLEWIGEINPNNGGTKFNEKFKNRATLTVDKSISTAYMELSRLRSDDTAVYYCSREDDYDGTPFAMDYWGQGTLVTVSSGGGGSGGGGSGGGGSGGGGSDIQMTQSPSSLSASVGDRVTITCHASQNINVWLSWYQQKPGKAPKLLIYKASNLHTGVPSRFTGSGSGTDFTFTISSLQPEDIATYYCQQGQTYPYTFGQGTKLEIKGGGGSGGGGSGGGGSGGGGS
light: EIVLTQSPGTLSLSPGERATLSCRASQRVSSSYLAWYQQKPGQAPRLLIYDASSRATGIPDRFSGSGSGTDFTLTISRLEPEDFAVYYCQQYGSLPWTFGQGTKVEIKRTVAAPSVFIFPPSDEQLKSGTASVVCLLNNFYPREAKVQWKVDNALQSGNSQESVTEQDSKDSTYSLSSTLTLSKADYEKHKVYACEVTHQGLSSPVTKSFNRGECGGGGSGGGGSGGGGSGGGGSDIQMTQSPSSLSASVGDRVTITCHASQNINVWLSWYQQKPGKAPKLLIYKASNLHTGVPSRFTGSGSGTDFTFTISSLQPEDIATYYCQQGQTYPYTFGQGTKLEIKGGGGSGGGGSGGGGSGGGGSQVQLVQSGAEVKKPGASVKLSCKASGYIFTRYYMYWVKQRPGQGLEWIGEINPNNGGTKFNEKFKNRATLTVDKSISTAYMELSRLRSDDTAVYYCSREDDYDGTPFAMDYWGQGTLVTVSS
B6: ICT01 (antibody, V domains shown)
VH: QVQLVQSGAEVKKPGASVKLSCKASGYIFTRYYMYWVKQRPGQGLEWIGEINPNNGGTKFNEKFKNRATLTVDKSISTAYMELSRLRSDDTAVYYCSREDDYDGTPFAMDYWGQGTLVTVSS
VL: DIQMTQSPSSLSASVGDRVTITCHASQNINVWLSWYQQKPGKAPKLLIYKASNLHTGVPSRFTGSGSGTDFTFTISSLQPEDIATYYCQQGQTYPYTFGQGTKLEIK

The binders below were run against BTN3A expressed at the cell surface (human), O00481 (assay: cell-based or functional assay).
Sequence of BTN3A expressed at the cell surface (human), O00481 (O00481 30-513): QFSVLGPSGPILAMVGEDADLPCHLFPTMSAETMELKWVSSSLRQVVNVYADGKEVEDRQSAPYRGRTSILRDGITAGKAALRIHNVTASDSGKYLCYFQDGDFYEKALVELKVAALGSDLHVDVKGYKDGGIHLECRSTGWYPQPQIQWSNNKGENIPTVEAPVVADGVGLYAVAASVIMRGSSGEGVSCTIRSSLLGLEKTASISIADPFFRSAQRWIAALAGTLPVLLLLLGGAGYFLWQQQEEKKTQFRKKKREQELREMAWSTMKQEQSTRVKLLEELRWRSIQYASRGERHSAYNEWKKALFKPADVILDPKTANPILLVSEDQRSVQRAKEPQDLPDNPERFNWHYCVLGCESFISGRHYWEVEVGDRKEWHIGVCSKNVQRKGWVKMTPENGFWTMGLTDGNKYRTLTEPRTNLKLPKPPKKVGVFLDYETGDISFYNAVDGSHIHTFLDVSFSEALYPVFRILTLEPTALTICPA

Jurkat-Vy9Vo2 TCR MOP activation at 0.5 nM (fold-change to medium) | Jurkat-Vy9Vo2 TCR MOP activation at 5 nM (fold-change to medium) | dose at which Jurkat-Vγ9Vδ2 TCR MOP activation was evident [nM] | increase in CD107ab expression on Vγ9Vδ2 T cells co-cultured with SKOV3 cells, 0.1 nM [fold] | Binder
1.1 | 1.7 | – | – | B1
5.3 | 4.8 | – | – | B2
6.4 | 4.6 | – | – | B3
1.3 | 1.4 | – | – | B4
1.5 | 1.3 | – | – | B5
12.5 | 11.7 | 0.05 | 1.9 | B6
